# Laboratory results published in patent publication US9932404B2.
# Experiments:
# [1] = biological target: human TLR3 extracellular domain (amino acids 1-703) with C-terminal poly-histidine tag (human); test: ELISA, coated huTLR3 ECD
# [2] = biological target: human TLR3 extracellular domain (amino acids 1-703) with C-terminal poly-histidine tag (human); test: Biacore (data not shown)
# [3] = biological target: full-length murine TLR3 (mouse)
EC50 [1],Kd [2],"IC50, poly(I:C)-induced ISRE luciferase reporter [3]",Binder
0.0437 mg/L,< 0.01 µM,–,"mAb 16 (antibody, V domains shown) VH: QVELVQSGAEVKKPGESLKISCKGSGYSFNNYWIGWVRQMPGKGLEWMGIIDPGDSYTNYAPSFQGQVTISADKSISTAYLQWSSLKASDTAMYYCARNIYEFDYWGQGTLVTVSS VL: DIQMTQSPSSLSASVGDRVTITCRASQGISSWLNWYQQKPGKAPKLLIYGASNLQSGVPSRFSGSGSGTDFTLTISSLQPEDFAVYYCQQYDDFSITFGQGTKVEIK"
0.0531 mg/L,< 0.01 µM,–,"mAb 2 (antibody, V domains shown) VH: QVELVQSGAEVKKPGESLKISCKGSGYSFNNYWIGWVRQMPGKGLEWMGIIDPQDSWTNYAPSFQGQVTISADKSISTAYLQWSSLKASDTAMYYCARNIYEFDYWGQGTLVTVSS VL: DIQMTQSPSSLSASVGDRVTITCRASQGISSWLNWYQQKPGKAPKLLIYGASNLQSGVPSRFSGSGSGTDFTLTISSLQPEDFAVYYCQQYDDFSITFGQGTKVEIK"
0.0186 mg/L,< 0.01 µM,–,"mAb 8 (antibody, V domains shown) VH: QVELQQSGPGLVKPSQTLSLTCAISGDSVSSNSAAWGWIRQSPGRGLEWLGIIQTRSKWYNDYAVSVKSRITINPDTSKNQFSLQLNSVTPEDTAVYYCARYSYPFYSIDYWGQGTLVTVSS VL: DIELTQPPSVSVAPGQTARISCSGDNIGSYYVHWYQQKPGQAPVLVIYEDSERPSGIPERFSGSNSGNTATLTISGTQAEDEADYYCQSYDSQFSFGVFGGGTKLTVL"
0.0256 mg/L,< 0.01 µM,–,"mAb 12 (antibody, V domains shown) V domain 1: QVELQQSGPGLVKPSQTLSLTCAISGDSVSSNSAAWGWIRQSPGRGLEWLGIIQKRSKWYNNYAVSVKSRITINPDTSKNQFSLQLNSVTPEDTAVYYCARYSYPFYSIDYWGQGTLVTVSS V domain 2: DIELQQSGPGLVKPSQTLSLTCAISGDSVSSNSAAWGWIRQSPGRGLEWLGIIQKRSKWYNNYAVSVKSRITINPDTSKNQFSLQLNSVTPEDTAVYYCARYSYPFYSIDYWGQGTLVTVSS"
0.0263 mg/L,< 0.01 µM,–,"mAb 11 (antibody, V domains shown) VH: QVELQQSGPGLVKPSQTLSLTCAISGDSVSSNSAAWGWIRQSPGRGLEWLGIIQKRSKWYNNYAVSVKSRITINPDTSKNQFSLQLNSVTPEDTAVYYCARYSYPFYSIDYWGQGTLVTVSS VL: DIELTQPPSVSVAPGQTARISCSGDNIGSYYVHWYQQKPGQAPVLVIYEDSERPSGIPERFSGSNSGNTATLTISGTQAEDEADYYCSSYDEPNFNVFGGGTKLTVL"
0.0226 mg/L,< 0.01 µM,–,"mAb 9 (antibody, V domains shown) VH: QVELQQSGPGLVKPSQTLSLTCAISGDSVSSNSAAWGWIRQSPGRGLEWLGIIQIRSKWYNDYALSVKSRITINPDTSKNQFSLQLNSVTPEDTAVYYCARYSYPFYSIDYWGQGTLVTVSS VL: DIELTQPPSVSVAPGQTARISCSGDNIGSYYVHWYQQKPGQAPVLVIYEDSERPSGIPERFSGSNSGNTATLTISGTQAEDEADYYCQSYDSQFSFGVFGGGTKLTVL"
0.0158 mg/L,< 0.01 µM,–,"mAb 10 (antibody, V domains shown) VH: QVELQQSGPGLVKPSQTLSLTCAISGDSVSSNSAAWGWIRQSPGRGLEWLGIIQKRSKWYNNYAVSVKSRITINPDTSKNQFSLQLNSVTPEDTAVYYCARYSYPFYSIDYWGQGTLVTVSS VL: DIELTQPPSVSVAPGQTARISCSGDNIGSYYVHWYQQKPGQAPVLVIYEDSERPSGIPERFSGSNSGNTATLTISGTQAEDEADYYCQSYDTPVYSVFGGGTKLTVL"
0.00968 mg/L,< 0.01 µM,–,"mAb 18 (antibody, V domains shown) VH: QVELQQSGPGLVKPSQTLSLTCAISGDSVSSNSAAWGWIRQSPGRGLEWLGIIQKRSKWYNNYAVSVKSRITINPDTSKNQFSLQLNSVTPEDTAVYYCARYSYPFYSIDYWGQGTLVTVSS VL: DIELTQPPSVSVAPGQTARISCSGDNIGSYYVHWYQQKPGQAPVLVIYEDSERPSGIPERFSGSNSGNTATLTISGTQAEDEADYYCQSYDSQFSFGVFGGGTKLTVL"
–,–,0.7 mg/L,"mAb c1811 (antibody, V domains shown) VH: EVQLVASGGGLVKPGASLKLSCVASGFTFSDYWMAWVRQTPGKPMEYIGDIKSDGSKVNYAPSLKNRFTISRDNARTTLYLQMSNVRSEDTATYYCNRDIGPDWYFDFWGPGTMVTVSS VL: DIQMTQSPTSLSASLGETVTIECRASEDIYNGLAWYQQKPGKSPQLLIYDSNSLHTGVPSRFSGRGSGTQYSLRINSLQSEDVASYFCQQYYDYPLTFGSGTKLEIKR"
0.0172 mg/L,< 0.01 µM,–,"mAb 1 (antibody, V domains shown) V domain 1: GVELVQSGAEVKKPGESLKISCKGSGYSFTDNWISWVRQAPGKGLEWMGVIDPSDSYTNYAPSFQGQVTISADKSISTAYLQWSSLKASDTAMYYCAREWGIGGMVDIWG V domain 2: DIVLTQSPATLSLSPGERATLSCRASQYIDISYLAWYQQKPGQAPRLLIYDASSRATGVPARFSGSGSGTDFTLTISSLEPEDFAVYYCQQYYSLSITFGQGTKVEIK"
0.0235 mg/L,< 0.01 µM,–,"mAb 13 (antibody, V domains shown) VH: QVELVQSGAEVKKPGESLKISCKGSGYSFTNYWVGWVRQMPGKGLEWMGFIDPSDSYTNYAPSFQGQVTISADKSISTAYLQWSSLKASDTAMYYCARELYQGYMDTFDSWGQGTLVTVSS VL: DIQMTQSPSSLSASVGDRVTITCRASQSIGLYLAWYQQKPGKAPKLLIYAASSLQSGVPSRFSGSGSGTDFTLTISSLQPEDFATYYCQQGESILSTFGQGTKVEIK"
0.0336 mg/L,< 0.01 µM,–,"mAb 14 (antibody, V domains shown) VH: QVELVQSGAEVKKPGESLKISCKGSGYSFTNYWVGWVRQMPGKGLEWMGFIDPSDSYTNYAPSFQGQVTISADKSISTAYLQWSSLKASDTAMYYCARELYQGYMDTFDSWGQGTLVTVSS VL: DIQMTQSPSSLSASVGDRVTITCRASQSIGLYLAWYQQKPGKAPKLLIYAASSLQSGVPSRFSGSGSGTDFTLTISSLQPEDFATYYCQQAETVSPTFGQGTKVEIKR"
0.0665 mg/L,< 0.01 µM,–,"mAb 19 (antibody, V domains shown) VH: QVELVQSGAEVKKPGESLKISCKGSGYSFTNYWVGWVRQMPGKGLEWMGFIDPSDSYTNYAPSFQGQVTISADKSISTAYLQWSSLKASDTAMYYCARELYQGYMDTFDSWGQGTLVTVSS VL: DIQMTQSPSSLSASVGDRVTITCRASQSIGLYLAWYQQKPGKAPKLLIYAASSLQSGVPSRFSGSGSGTDFTLTISSLQPEDFATYYCQQYGSVSITFGQGTKVEIK"
0.0128 mg/L,< 0.01 µM,–,"mAb 4 (antibody, V domains shown) VH: QVELQQSGPGLVKPSQTLSLTCAISGDSVSTRSAAWGWIRQSPGRGLEWLGKISYRSRWYNDYAVSVKSRITINPDTSKNQFSLQLNSVTPEDTAVYYCARHTYPYLSFDVWGQGTLVTVSS VL: DIELTQPPSVSVAPGQTARISCSGDALGGYFVSWYQQKPGQAPVLVIYDDDNRPSGIPERFSGSNSGNTATLTISGTQAEDEADYYCASYDGDEFTVFGGGTKLTVL"
0.019 mg/L,< 0.01 µM,–,"mAb 6 (antibody, V domains shown) VH: QVELQQSGPGLVKPSQTLSLTCAISGDSVSTRSAAWGWIRQSPGRGLEWLGRIYMRSKWYNDYAVSVKSRITINPDTSKNQFSLQLNSVTPEDTAVYYCARHTYPYLSFDVWGQGTLVTVSS VL: DIELTQPPSVSVAPGQTARISCSGDALGGYFVSWYQQKPGQAPVLVIYDDDNRPSGIPERFSGSNSGNTATLTISGTQAEDEADYYCGSYDSNSLTVFGGGTKLTVL"
0.0234 mg/L,< 0.01 µM,–,"mAb 3 (antibody, V domains shown) VH: QVELQQSGPGLVKPSQTLSLTCAISGDSVSTRSAAWGWIRQSPGRGLEWLGRIHRRSKWYNDYAVSVKSRITINPDTSKNQFSLQLNSVTPEDTAVYYCARHTYPYLSFDVWGQGTLVTVSS VL: DIELTQPPSVSVAPGQTARISCSGDALGGYFVSWYQQKPGQAPVLVIYDDDNRPSGIPERFSGSNSGNTATLTISGTQAEDEADYYCASYDGDEFTVFGGGTKLTVL"
0.0199 mg/L,< 0.01 µM,–,"mAb 5 (antibody, V domains shown) VH: QVELQQSGPGLVKPSQTLSLTCAISGDSVSTRSAAWGWIRQSPGRGLEWLGRIYMRSKWYNDYAVSVKSRITINPDTSKNQFSLQLNSVTPEDTAVYYCARHTYPYLSFDVWGQGTLVTVSS VL: DIELTQPPSVSVAPGQTARISCSGDALGGYFVSWYQQKPGQAPVLVIYDDDNRPSGIPERFSGSNSGNTATLTISGTQAEDEADYYCQSYDEDSATVFGGGTKLTVL"
0.0161 mg/L,< 0.01 µM,–,"mAb 7 (antibody, V domains shown) VH: QVELQQSGPGLVKPSQTLSLTCAISGDSVSTRSAAWGWIRQSPGRGLEWLGRIYMRSKWYNDYAVSVKSRITINPDTSKNQFSLQLNSVTPEDTAVYYCARHTYPYLSFDVWGQGTLVTVSS VL: DIELTQPPSVSVAPGQTARISCSGDALGGYFVSWYQQKPGQAPVLVIYDDDNRPSGIPERFSGSNSGNTATLTISGTQAEDEADYYCSSYDSDSLTVFGGGTKLTVL"
0.0138 mg/L,< 0.01 µM,–,"mAb 17 (antibody, V domains shown) VH: QVELQQSGPGLVKPSQTLSLTCAISGDSVSTRSAAWGWIRQSPGRGLEWLGRIYMRSKWYNDYAVSVKSRITINPDTSKNQFSLQLNSVTPEDTAVYYCARHTYPYLSFDVWGQGTLVTVSS VL: DIELTQPPSVSVAPGQTARISCSGDALGGYFVSWYQQKPGQAPVLVIYDDDNRPSGIPERFSGSNSGNTATLTISGTQAEDEADYYCASYDGDEFTVFGGGTKLTVL"
